The values that follow come from publication PMC6008203.

The assay deals with PtmA2 (as used for analytical size-exclusion chromatography) (Streptomyces platensis CB00739). Kind of assay: SEC.

“PtmA2 (as used for analytical size-exclusion chromatography) (enzyme)” returned a stoichiometry N of 2.
